This assay deals with endogenous CHK2 (human (endogenous in LNCaP)) (UniProt O96017). Nature of the assay: co-IP; LNCaP cells expressing wtAR, S81A or S308A for 48 hr; untreated or 6 Gy IR; endogenous CHK2 immunoprecipitated one hour after IR from 1 mg lysate; blotted for AR.
Chain of UniProt O96017 (O96017 whole entry): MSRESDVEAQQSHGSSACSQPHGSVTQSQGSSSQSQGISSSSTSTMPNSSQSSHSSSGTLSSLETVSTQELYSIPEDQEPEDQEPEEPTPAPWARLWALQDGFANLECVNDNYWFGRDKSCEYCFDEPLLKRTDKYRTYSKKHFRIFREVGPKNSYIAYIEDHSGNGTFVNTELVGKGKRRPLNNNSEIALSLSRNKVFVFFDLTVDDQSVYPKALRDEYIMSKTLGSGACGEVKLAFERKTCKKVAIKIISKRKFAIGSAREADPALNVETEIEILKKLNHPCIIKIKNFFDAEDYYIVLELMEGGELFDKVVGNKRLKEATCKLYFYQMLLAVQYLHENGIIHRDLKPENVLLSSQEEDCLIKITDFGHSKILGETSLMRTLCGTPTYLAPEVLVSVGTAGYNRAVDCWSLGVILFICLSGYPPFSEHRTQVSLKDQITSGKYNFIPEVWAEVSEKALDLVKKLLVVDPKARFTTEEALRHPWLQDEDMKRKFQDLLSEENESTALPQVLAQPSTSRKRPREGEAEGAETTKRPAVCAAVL

“wtAR expressed in LNCaP cells (from UniProt P10275 1-920) (receptor)” showed a fold change of AR co-immunoprecipitated with CHK2 after IR against untreated cells of 4 fold.

The values are drawn from paper PMC7338052.
